The first assay deals with T1, PKC-theta (Homo sapiens, UniProt Q04759).
T1 construct: His-tag; made in house; host or cells: baculovirus-infected Sf9 cells
T1 sequence (Q04759 whole entry): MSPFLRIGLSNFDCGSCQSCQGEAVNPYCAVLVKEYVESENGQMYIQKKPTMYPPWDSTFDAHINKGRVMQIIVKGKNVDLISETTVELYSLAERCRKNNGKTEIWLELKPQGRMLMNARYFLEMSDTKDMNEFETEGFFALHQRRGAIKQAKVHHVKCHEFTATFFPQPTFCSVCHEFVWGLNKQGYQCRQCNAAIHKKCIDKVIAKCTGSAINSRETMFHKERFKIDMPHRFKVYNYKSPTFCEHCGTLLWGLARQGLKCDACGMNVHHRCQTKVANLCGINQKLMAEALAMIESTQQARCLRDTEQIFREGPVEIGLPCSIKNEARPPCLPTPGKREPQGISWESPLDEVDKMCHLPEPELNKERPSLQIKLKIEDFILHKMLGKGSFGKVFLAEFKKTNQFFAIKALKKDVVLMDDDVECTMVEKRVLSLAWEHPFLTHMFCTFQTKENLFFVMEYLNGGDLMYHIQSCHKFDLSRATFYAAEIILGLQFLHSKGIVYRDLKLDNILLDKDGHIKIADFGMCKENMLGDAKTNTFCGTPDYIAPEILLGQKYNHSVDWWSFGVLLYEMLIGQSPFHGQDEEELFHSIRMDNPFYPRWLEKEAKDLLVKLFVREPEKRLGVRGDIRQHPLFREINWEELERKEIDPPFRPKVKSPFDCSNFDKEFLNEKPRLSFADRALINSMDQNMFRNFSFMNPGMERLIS
The assay can be described thus: In vitro kinase assay: peptide phosphorylation by PKC-theta.
Conditions: not given
The assay is classed as biochemical. The source says:
A second strategy for validation of the PSSM derived from the methods described herein is to identify sequences represented in the human proteome that have low percentiles derived from the PSSM, to synthesize peptides that have those sequences, and test the efficiency of phosphorylation of those peptides by the kinase of interest. […] The results are shown for individual peptides (FIG. 11, panel A) or for groups of peptides aggregated by percentile prediction (FIG. 11, panel B). As with the testing described above with prospectively chosen peptides, the percentile scores are highly predictive of phosphorylation by the relevant kinase.
An example of the purification procedure used for production of active kinase is as follows. A preparation of PKC-theta was prepared using a Gateway expression construct containing PKC-theta that was expressed in baculovirus, which were used to infect Sf9 cells. The cell pellet from a liter of baculovirus-infected Sf9 cells was resuspended in 20 volumes (60 ml) of extraction buffer (20 mM Na phosphate buffer pH 7.5, 500 mM NaCl, 5 mM pyrophosphate, 10% glycerol, 10 mM imidazole, 1 mM PMSF), sonicated twice for one minute (1 cm tip at 60% power and 50% duty cycle) and cell disruption was verified microscopically. The sample was adjusted to five mM MgCl2 and treated with one U benzonase/ml for an additional 20 minute on ice. The sample was clarified by centrifugation in a JA-20 rotor at 15K for 30 min at 4° C., filtered through a […] filter and applied at 0.5 ml/min to a one ml chelating sepharose column previously charged with nickel and equilibrated with extraction buffer. The column was washed with extraction buffer at one ml/min to baseline and eluted in a 20 ml gradient (20-500 mM imidazole in extraction buffer) into one ml fractions that were analyzed by SDS-PAGE. Fractions with the highest concentration of protein were pooled, were dialyzed twice against one liter of 20 mM Na PO4 pH 7.5, 50 mM NaCl buffer. The kinase pool was dialyzed twice against 20 mM HEPES pH 7.4, 100 mM NaCl, 2 mM EDTA, 5 mM DTT, 0.05% Triton-X-100. After dialysis, the sample was adjusted to 50% glycerol and quick-frozen in a dry ice/ethanol bath.
(§1) The conditions of the kinase assay and the amount of active kinase used varied with the kinase and with the accuracy needed. For a typical experiment, 5-20 ng of kinase was used per well and each peptide pool was assayed in duplicate wells. Note that the absolute amount of kinase used was not usually a critical parameter, because the desired information related to specificity of the kinase not its absolute activity, and robustness of the assay depends on comparisons of the same amount of kinase on different peptides. The combination of kinase concentration and assay duration was modified to assure that the stoichiometry of peptide phosphorylation never exceeded 5%. The choice of kinase buffer depended on the kinase being analyzed. For studies of PKC, 100 mM HEPES, 0.05% Triton-X100, 1 mM CaCl2, 20 mM MgCl2, 0.2 mg/ml phosphatidyl serine (Avanti Polar Lipids), PMA 100 ng/ml was typically used. The lipid stock was prepared by transferring 3 mg phosphatidyl serine into iced mixture of 450 μl water plus 50 μl of 10% Triton-X100, sonicating 10 times on ice for 1 sec each.
The kinase reaction mixture was assembled by sequential addition to a tube held on ice of: 5 μl peptide (100 μM for final concentration of 10 μM), 15 μl of kinase (typically 5 ng/well, in appropriate kinase buffer), 30 μl of ATP (1 uCi/well of ^32P-gamma ATP in a stock of 167 μM cold ATP in the kinase buffer; for final concentration for 100 μM ATP). The mixture was rapidly warmed to desired reaction temperature (30° C. for PKC) and incubated for the desired duration (usually 10 minutes). The kinase assay was terminated by transfer to 4° C. water batch, and rapid addition of an equal volume (50 μl) of stop solution [0.1M ATP+0.1M EDTA in water, pH 8]. […]
On to 209 (DKEKSKGSLKRK) [compound 209], for which the “in vitro phosphorylation by PKC” value is “phosphorylated by PKC”.

The same assay, now with this note: normalized to best substrate.
Take 168 (AMSRSASKRRSR) [compound 168]: the “Measured in vitro phosphorylation by PKC-theta” value (shortened to “Measured … by PKC-theta”) is on record as 100%.
Consider 169 (RTRSRRLTFRK) [compound 169], for which the “Measured … by PKC-theta” value amounted to 100%.
Still for that read-out and setting: the result for 170 (VKLRRSKKRTKR) [compound 170] reads 98%; that for 171 (RRGRRSTKKRRR) [compound 171], 92%.
172 (VRRRRSQRISQR) [compound 172]: the “Measured … by PKC-theta” value stood at 86%.
The same measure, in the same setting: the result for 173 (RSGRRRGSQKS) [compound 173] reads 85%; that for 174 (KKERRRNSINRN) [compound 174], 83%.
As for 175 (KKRRTKSSRRGV) [compound 175], the “Measured … by PKC-theta” value was 80%.
176 (RRERSRSRRKQ) [compound 176]: the “Measured … by PKC-theta” value is given as 66%.
The same measure, in the same setting: the result for 177 (RRRRRRSRTFSR) [compound 177] reads 66%; that for 178 (RRRRSRTFSRS) [compound 178], 65%; that for 179 (KRHYRKSVRSRS) [compound 179], 65%.
On the same count and under the same terms, the result for 180 (FLRRSSSRRNRS) [compound 180] reads 65%; that for 181 (TGERKRKSVRG) [compound 181], 62%.
Still for that read-out and setting: the result for 182 (TKKKRGSYRGGS) [compound 182] reads 61%; that for 183 (ARRSKRSRRRET) [compound 183], 55%.
Turning to 184 (FRASSRSTTK) [compound 184], the “Measured … by PKC-theta” value worked out at 54%.
Still for that read-out and setting: the result for 185 (KKFKRRLSLTLR) [compound 185] reads 51%.
On the same count and under the same terms, the result for 186 (DFRRRRSFRRIA) [compound 186] reads 50%; that for 187 (LRRKSSTRHIHA) [compound 187], 48%; that for 188 (ERGRRGSKKGSI) [compound 188], 44%.
The same measure, in the same setting: the result for 189 (GRRRRSRSKVK) [compound 189] reads 43%.
In the case of 190 (RRRRHTMDKDSR) [compound 190], the “Measured … by PKC-theta” value is 40%.
Same read-out and setting: the result for 191 (HKRNSVRLVIR) [compound 191] reads 38%; that for 192 (GNRKGKSKKWRQ) [compound 192], 35%; that for 193 (PLRKSSLKKGGR) [compound 193], 35%.
Still for that read-out and setting: the result for 194 (KRRKRKSLQRHK) [compound 194] reads 34%; that for 195 (PGSSHRKTKK) [compound 195], 33%.
The same measure, in the same setting: the result for 196 (RWKRRRSYSREH) [compound 196] reads 32%; that for 197 (ILRPSKSVKLRS) [compound 197], 32%; that for 198 (RRRRPTKSKGSK) [compound 198], 28%.
Consider 199 (RGRRSRSRLRRR) [compound 199], for which the “Measured … by PKC-theta” value is on record as 27%.
The same measure, in the same setting: the result for 200 (EQQRRALSFRQ) [compound 200] reads 26%.
Same read-out and setting: the result for 201 (TQDRRKSLFKKI) [compound 201] reads 25%.
Still for that read-out and setting: the result for 202 (VMKRKFSLRAAE) [compound 202] reads 24%; that for 203 (VRRSKKSKKKES) [compound 203], 24%; that for 204 (RFSRRSSSWRIL) [compound 204], 22%.
As to 205 (EGRRSRSRRYSG) [compound 205], the “Measured … by PKC-theta” value is 22%.
Same read-out and setting: the result for 206 (KSSRNSTSVKKK) [compound 206] reads 19%; that for 207 (SFRGHITRKKLK) [compound 207], 18%; that for 208 (VSRPRKSRKRVD) [compound 208], 17%.
On the same count and under the same terms, the result for 209 (DKEKSKGSLKRK) [compound 209] reads 17%; that for 210 (PLRRRESMHVEQ) [compound 210], 16%; that for 211 (RSRSYSRSRSR) [compound 211], 16%.

For another assay, the target named is T2, PKC-delta (Homo sapiens, UniProt Q05655).
T2 construct: purchased Calbiochem
T2 sequence (Q05655 whole entry): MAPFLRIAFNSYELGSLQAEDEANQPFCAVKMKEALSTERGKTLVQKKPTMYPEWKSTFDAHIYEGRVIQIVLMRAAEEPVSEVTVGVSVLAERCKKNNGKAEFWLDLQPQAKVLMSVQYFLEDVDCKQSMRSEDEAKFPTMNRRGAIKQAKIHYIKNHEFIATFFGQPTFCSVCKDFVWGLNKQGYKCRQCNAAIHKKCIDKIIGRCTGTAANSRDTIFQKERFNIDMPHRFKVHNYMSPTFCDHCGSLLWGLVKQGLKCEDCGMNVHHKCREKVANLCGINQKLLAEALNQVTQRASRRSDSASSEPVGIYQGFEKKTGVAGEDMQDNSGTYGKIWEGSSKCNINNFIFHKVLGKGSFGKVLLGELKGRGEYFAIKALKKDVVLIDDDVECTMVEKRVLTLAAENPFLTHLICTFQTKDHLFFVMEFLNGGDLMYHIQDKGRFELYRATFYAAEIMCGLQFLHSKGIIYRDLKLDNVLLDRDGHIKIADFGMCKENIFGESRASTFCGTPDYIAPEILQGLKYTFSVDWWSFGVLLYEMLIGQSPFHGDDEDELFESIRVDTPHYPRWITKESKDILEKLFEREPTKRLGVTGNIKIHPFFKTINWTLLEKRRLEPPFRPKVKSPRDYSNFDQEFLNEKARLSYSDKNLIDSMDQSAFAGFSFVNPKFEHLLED
The assay can be described thus: In vitro kinase assay: peptide phosphorylation by PKC-delta. In kind it is biochemical. The following applies: PKC-delta.
Excerpt: One approach to validating a substrate identification method can involve, for example, comparison of substrate sites predicted by the method with in vitro phosphorylation results obtained using the selected kinase and peptides of known sequences. Such a systematic validation has been performed for the methods described herein. For example, a panel of seventy five peptides was synthesized, the phosphorylation observed for each peptide was experimentally measured, the amount of phosphorylation was quantified, the phosphorylation results for each peptide were normalized to the phosphorylation observed with the best substrate tested and these amounts were compared with predictions made according to the invention and according to the procedures provided by others. These peptides are referred to herein as proteomic peptides because their sequences are chosen from proteins in the human proteome; unlike the test sets employed herein, these peptides include no degenerate positions
Table 2 compares the present predictions with actual measurements of phosphorylation on validating peptides. The method of synthesis of the validating peptides was as described elsewhere in the application, and each included an N-terminal linker sequence of biotinylated-Lys-dansylated-Lys-Pro-Pro-Gly (SEQ ID NO:231). The length of the remaining “core” of the validating peptides ranged from 12-21 residues with one to five S/T residues. In vitro phosphorylation of these validating peptides was measured in the manner described herein. […] In vitro phosphorylation results for the validating peptides were expressed as normalized values, namely as a percentage of phosphorylation of the best validating peptide substrate in the group.
as §1
The kinase reaction mixture was assembled by sequential addition to a tube held on ice of: 5 μl peptide (100 μM for final concentration of 10 μM), 15 μl of kinase (typically 5 ng/well, in appropriate kinase buffer), 30 μl of ATP (1 uCi/well of ^32P-gamma ATP in a stock of 167 μM cold ATP in the kinase buffer; for final concentration for 100 μM ATP). The mixture was rapidly warmed to desired reaction temperature (30° C. for PKC) and incubated for the desired duration (usually 10 minutes). The kinase assay was terminated by transfer to 4° C. water batch, and rapid addition of an equal volume (50 μl) of stop solution [0.1M ATP+0.1M EDTA in water, pH 8].
The peptides were then captured from the reaction mixture by transfer to a Reacti-Bind Streptavidin High Binding Capacity Coated Plates (HBC) (Pierce Biotechnology) as follows. The HBC plates were pre-rinsed three times with PBS/Tween PBS/Tween20 0.05% (PBS/Tween). […]
In the case of 66 (GFAKKIGSGQKTWTF) [compound 66], the “phosphorylation in the in vitro validating assay” value is on record as “poorly phosphorylated”.
Still for that read-out and setting: the result for 69 (LALTARESSVRSGGAG) [compound 69] reads “poorly phosphorylated”.

The assay is the same for the next values; noted with them: peptide concentration of 10 nM; percentage of phosphorylation of the best validating peptide substrate.
For 66 (GFAKKIGSGQKTWTF) [compound 66], the “Measured in vitro phosphorylation by PKC-delta” value (shortened to “Measured … by PKC-delta”) is reported as 1%.
The same measure, in the same setting: the result for 67 (AINSRETMFHKERFK) [compound 67] reads 1%.
Still for that read-out and setting: the result for 68 (RGEGHKPSIAHRDFK) [compound 68] reads 1%.
Same read-out and setting: the result for 69 (LALTARESSVRSGGAG) [compound 69] reads 1%.
In the case of 70 (HERKGSDKRGDNQ) [compound 70], the “Measured … by PKC-delta” value is 1%.
On the same count and under the same terms, the result for 71 (RRRQKRRTGALVLSRGGKR) [compound 71] reads 1%.
Take “72 (LTDPKEDPIYDEPEGLAPVPG) [compound 72]”: the “Measured … by PKC-delta” value came out at 0%.
In the case of 73 (IDYYKKTTNGRLPVK) [compound 73], the “Measured … by PKC-delta” value is on record as 0%.
In the case of 74 (IDYYKKTSNGRLPVK) [compound 74], the “Measured … by PKC-delta” value amounted to 0%.

Values taken from US20050064507A1, “Determining kinase specificity” (priority 2003, published 2005).
